Literature values, collected in PMC6978450.

Tests used:
IL-13Rα1 (Mus musculus) = IL-13Rα1 (Mus musculus) (UniProt O09030)
IL-13Rα2 (Mus musculus) = IL-13Rα2 (Mus musculus) (UniProt O88786)
UniProt O88786, sequence (O88786 22-334): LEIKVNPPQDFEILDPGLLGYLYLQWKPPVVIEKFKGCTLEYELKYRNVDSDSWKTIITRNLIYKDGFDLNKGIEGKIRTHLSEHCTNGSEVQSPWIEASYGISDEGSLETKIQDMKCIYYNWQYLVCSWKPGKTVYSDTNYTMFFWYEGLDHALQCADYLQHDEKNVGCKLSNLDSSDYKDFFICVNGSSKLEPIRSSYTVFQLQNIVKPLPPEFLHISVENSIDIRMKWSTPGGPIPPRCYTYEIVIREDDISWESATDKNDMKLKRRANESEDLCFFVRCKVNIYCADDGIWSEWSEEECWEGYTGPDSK

UniProt O09030, sequence (O09030 26-340): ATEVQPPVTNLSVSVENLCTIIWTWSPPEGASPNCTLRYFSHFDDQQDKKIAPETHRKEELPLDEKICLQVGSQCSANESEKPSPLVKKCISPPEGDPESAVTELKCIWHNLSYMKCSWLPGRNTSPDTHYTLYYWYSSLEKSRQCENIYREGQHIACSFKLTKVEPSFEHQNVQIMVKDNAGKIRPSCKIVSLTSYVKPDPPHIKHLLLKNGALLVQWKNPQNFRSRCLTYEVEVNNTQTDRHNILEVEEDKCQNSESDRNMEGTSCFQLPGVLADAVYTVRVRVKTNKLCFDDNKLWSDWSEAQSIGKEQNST

Kd (IL-13Rα1 (Mus musculus)): 30 nM | Kd (IL-13Rα2 (Mus musculus)): 0.44 nM
Substance: IL-13 (from UniProt P20109)
